The assay addresses T1, recombinant human cANGPTL4 (C terminal region of angiopoietin-like 4) (human, UniProt Q9BY76 186-406, limits assumed).
T1 construct: domain: c terminal region; Immobilized on the chip in SPR; added at 6 µg/ml to HMVECs in cell assays; also called rh-cANGPTL4; rhcANGPTL4
T1 sequence (looked up): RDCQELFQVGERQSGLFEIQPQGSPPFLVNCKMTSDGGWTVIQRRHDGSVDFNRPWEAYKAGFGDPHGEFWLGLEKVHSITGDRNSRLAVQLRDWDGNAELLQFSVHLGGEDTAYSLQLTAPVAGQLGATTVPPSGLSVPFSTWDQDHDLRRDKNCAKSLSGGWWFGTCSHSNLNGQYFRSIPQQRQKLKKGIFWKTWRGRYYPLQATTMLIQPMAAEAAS
The assay can be described thus: SPR (BIAcore 2000), immobilized cANGPTL4, global fitting. The procedure: Six concentrations (0.16, 0.32, 0.63, 1.25, 2.50 and 5.0 μM) of recombinant integrin β1, first extracellular domain of VE-cadherin (ECD1), extracellular repeat 1 domain of VE-cadherin (EC1), occludin or JAM-A were used.
Global fitting of the SPR data was performed as previously described to determine the KD. Preinjection or preincubation with the indicated antibodies or preimmune IgG was performed to determine specific interactions. Each sensorgram was corrected by subtracting a sensorgram obtained from a reference flow cell with no immobilized protein. […] Values are mean±S.D. (n=3)
For orientation: SPR reads the build-up and loss of mass on a sensor chip optically.

B1: claudin-5 (SPR analyte) (other, UniProt O00501 1-218, looked up)
chain: MGSAALEILGLVLCLVGWGGLILACGLPMWQVTAFLDHNIVTAQTTWKGLWMSCVVQSTGHMQCKVYDSVLALSTEVQAARALTVSAVLLAFVALFVTLAGAQCTTCVAPGPAKARVALTGGVLYLFCGLLALVPLCWFANIVVREFYDPSVPVSQKYELGAALYIGWAATALLMVGGCLLCCGAWVCTGRPDLSFPVKYSAPRRPTATGDYDKKNYV
Turning to B1, the Kd (usually a measure of binding affinity in units of concentration) amounted to 58.7 nM.

The values above are taken from patent publication US20180319878A1 (NANYANG TECHNOLOGICAL UNIVERSITY, published 2018).
